Earlier results on one substance are cited in PMC4184467.

This data set deals with Lys64. Conditions: wild-type enzyme, zinc-bound.

In the case of “Carbonic anhydrase III (CA III) (Homo sapiens)”, the pKa is 9.0.
